Test results from US20240018254A1.

Target: FcγRIIIa-bio (UniProt P08637)
Assay: BLI (Fortebio), FcγRIIIa-bio on SA sensor, antibody 31.3-500 nM, 1:1 fit

Sequence of UniProt P08637 (P08637 17-208 limits assumed): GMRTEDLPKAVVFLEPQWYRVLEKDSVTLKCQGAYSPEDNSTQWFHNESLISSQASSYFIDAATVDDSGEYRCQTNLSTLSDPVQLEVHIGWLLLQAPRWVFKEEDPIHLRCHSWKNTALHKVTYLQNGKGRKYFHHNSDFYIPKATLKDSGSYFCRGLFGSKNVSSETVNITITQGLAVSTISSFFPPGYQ

With MEDI9447 (Oleclumab) (antibody) the Kd was 141 nM, the koff was 0.0342 s⁻¹ and the kon was 243000 M⁻¹ s⁻¹.
